The values that follow come from patent publication US20240108738A1 (Bicycle, published 2024).

One may read the Kd as the free concentration of one partner at which half of the binding sites on the other are occupied at equilibrium, for simple one-to-one binding. Read a low Kd as a tighter complex.

Numbered stars: 1 amine (or outer) side, 2 acyl side, 3 side chain; on linkers, the order of the positions; unused ones are H or OH. Bridge positions count the residues as written; N and C are the ends. Square brackets hold non-standard residues; d marks the D form. Ends that are not written are not given here. TATA = O=C(CC[*:1])N1CN(C(=O)CC[*:2])CN(C(=O)CC[*:3])C1; Trp(1-Me) = Cn1cc(C[C@H](N)C(=O)O)c2ccccc21; cisHyp = O=C(O)[C@@H]1C[C@H](O)CN1; Hyp = O=C(O)[C@@H]1C[C@@H](O)CN1; hArg = N=C(N)NCCCC[C@H](N)C(=O)O; tBuAla = CC(C)(C)C[C@H](N)C(=O)O; Cha = N[C@@H](CC1CCCCC1)C(=O)O; Agb = N=C(N)NCC[C@H](N)C(=O)O; Cba = N[C@@H](CC1CCC1)C(=O)O; Chg = N[C@H](C(=O)O)C1CCCCC1; Tle = CC(C)(C)[C@H](N)C(=O)O; NMeA = CN[C@@H](C)C(=O)O; Nle = CCCC[C@H](N)C(=O)O; Sar = CNCC(=O)O

To fix the notation:
B1: BCY18315 (peptide)
peptide: ACNLQAPC[Cba]LTGKVCA-NH2
modifications: linker 2-8-15 via TATA; N-terminus assumed
SMILES: CC(C)C[C@@H]1NC(=O)[C@H](CC(N)=O)NC(=O)[C@@H](NC(=O)[C@H](C)N)CSCCC(=O)N2CN3CN(C2)C(=O)CCSC[C@H](NC(=O)[C@@H]2CCCN2C(=O)[C@H](C)NC(=O)[C@H](CCC(N)=O)NC1=O)C(=O)N[C@@H](CC1CCC1)C(=O)N[C@@H](CC(C)C)C(=O)N[C@@H]([C@@H](C)O)C(=O)NCC(=O)N[C@@H](CCCCN)C(=O)N[C@@H](C(C)C)C(=O)N[C@H](C(=O)N[C@@H](C)C(N)=O)CSCCC3=O
notes: scaffold TATA
B2: BCY18328 (peptide)
peptide: ACNLQAPCMLTG[hArg]VCA-NH2
modifications: linker 2-8-15 via TATA; N-terminus assumed
SMILES: CSCC[C@@H]1NC(=O)[C@@H]2CSCCC(=O)N3CN(CN(C3)C(=O)CCSC[C@@H](C(=O)N[C@@H](C)C(N)=O)NC(=O)[C@H](C(C)C)NC(=O)[C@H](CCCCNC(=N)N)NC(=O)CNC(=O)[C@H]([C@@H](C)O)NC(=O)[C@H](CC(C)C)NC1=O)C(=O)CCSC[C@H](NC(=O)[C@H](C)N)C(=O)N[C@@H](CC(N)=O)C(=O)N[C@@H](CC(C)C)C(=O)N[C@@H](CCC(N)=O)C(=O)N[C@@H](C)C(=O)N1CCC[C@H]1C(=O)N2
notes: scaffold TATA
B3: BCY18324 (peptide)
peptide: ACNLQAPCMLTG[Agb]VCA-NH2
modifications: linker 2-8-15 via TATA; N-terminus assumed
SMILES: CSCC[C@@H]1NC(=O)[C@@H]2CSCCC(=O)N3CN(CN(C3)C(=O)CCSC[C@@H](C(=O)N[C@@H](C)C(N)=O)NC(=O)[C@H](C(C)C)NC(=O)[C@H](CCNC(=N)N)NC(=O)CNC(=O)[C@H]([C@@H](C)O)NC(=O)[C@H](CC(C)C)NC1=O)C(=O)CCSC[C@H](NC(=O)[C@H](C)N)C(=O)N[C@@H](CC(N)=O)C(=O)N[C@@H](CC(C)C)C(=O)N[C@@H](CCC(N)=O)C(=O)N[C@@H](C)C(=O)N1CCC[C@H]1C(=O)N2
notes: scaffold TATA
B4: BCY18326 (peptide)
peptide: ACNLQAPCMLTGK[Chg]CA-NH2
modifications: linker 2-8-15 via TATA; N-terminus assumed
SMILES: CSCC[C@@H]1NC(=O)[C@@H]2CSCCC(=O)N3CN(CN(C3)C(=O)CCSC[C@@H](C(=O)N[C@@H](C)C(N)=O)NC(=O)[C@H](C3CCCCC3)NC(=O)[C@H](CCCCN)NC(=O)CNC(=O)[C@H]([C@@H](C)O)NC(=O)[C@H](CC(C)C)NC1=O)C(=O)CCSC[C@H](NC(=O)[C@H](C)N)C(=O)N[C@@H](CC(N)=O)C(=O)N[C@@H](CC(C)C)C(=O)N[C@@H](CCC(N)=O)C(=O)N[C@@H](C)C(=O)N1CCC[C@H]1C(=O)N2
notes: scaffold TATA
B5: BCY18288 (peptide)
peptide: ACDLTTHNCQ[Trp(1-Me)]GICA-NH2
modifications: linker 2-9-14 via TATA; N-terminus assumed
SMILES: CC[C@H](C)[C@@H]1NC(=O)CNC(=O)[C@H](Cc2cn(C)c3ccccc23)NC(=O)[C@H](CCC(N)=O)NC(=O)[C@@H]2CSCCC(=O)N3CN(CN(C3)C(=O)CCSC[C@@H](C(=O)N[C@@H](C)C(N)=O)NC1=O)C(=O)CCSC[C@H](NC(=O)[C@H](C)N)C(=O)N[C@@H](CC(=O)O)C(=O)N[C@@H](CC(C)C)C(=O)N[C@@H]([C@@H](C)O)C(=O)N[C@@H]([C@@H](C)O)C(=O)N[C@@H](Cc1c[nH]cn1)C(=O)N[C@@H](CC(N)=O)C(=O)N2
notes: scaffold TATA
B6: BCY18309 (peptide)
peptide: ACNLQA[Sar]CMLTGKVCA-NH2
modifications: linker 2-8-15 via TATA; N-terminus assumed
SMILES: CSCC[C@@H]1NC(=O)[C@@H]2CSCCC(=O)N3CN(CN(C3)C(=O)CCSC[C@@H](C(=O)N[C@@H](C)C(N)=O)NC(=O)[C@H](C(C)C)NC(=O)[C@H](CCCCN)NC(=O)CNC(=O)[C@H]([C@@H](C)O)NC(=O)[C@H](CC(C)C)NC1=O)C(=O)CCSC[C@H](NC(=O)[C@H](C)N)C(=O)N[C@@H](CC(N)=O)C(=O)N[C@@H](CC(C)C)C(=O)N[C@@H](CCC(N)=O)C(=O)N[C@@H](C)C(=O)N(C)CC(=O)N2
notes: scaffold TATA

T1 sequence (O76036 22-255 limits assumed): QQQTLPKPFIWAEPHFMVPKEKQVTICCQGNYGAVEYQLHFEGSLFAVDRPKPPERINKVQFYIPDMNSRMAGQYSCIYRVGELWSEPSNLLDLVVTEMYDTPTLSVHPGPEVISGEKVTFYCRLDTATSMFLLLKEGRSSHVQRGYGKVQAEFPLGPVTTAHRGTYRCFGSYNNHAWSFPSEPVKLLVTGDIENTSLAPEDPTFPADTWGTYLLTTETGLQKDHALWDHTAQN

The experiment concerns the target T1, Human NKp46 Fc tag (Acro Biosystems, NC1-H5257) (human, UniProt O76036 22-255).
T1 construct: bought; also called Fc-tagged human NKp46
Kind of experiment: SPR Method 1 and/or 2. As for the experimental part:
The SPR analysis was run at 25° C. and a flow rate of 50 μl/min with 60 seconds association and 200-400 seconds dissociation time. Data were corrected for DMSO excluded volume effects. All data were double-referenced for blank injections and reference surface using standard processing procedures and data processing and kinetic fitting were performed using Scrubber software, version 2.0c (BioLogic Software). Data were fitted using simple 1:1 binding model allowing for mass transport effects where appropriate.
For analysis of peptide binding, a Biacore 8k+ instrument was used with a CM5 chip (Cytiva). All experiments were carried out at 25° C. Anti-human IgG (Fc) antibody (Cytiva) was immobilized on all flow cells by standard amine coupling chemistry. The running buffer was HBS-N(Cytiva, 10 mM HEPES, 0.15 M NaCl, pH 7.4) and the flow rate was 10 μL/min. The carboxymethyl dextran surface was activated with a 1:1 ratio of 0.4 M 1-ethyl-3-(3-dimethylaminopropyl) carbodiimide hydrochloride (EDC)/0.1 M N-hydroxy succinimide (NHS) (Cytiva) for 420s. […] Residual activated groups were blocked with a 420 s injection of 1 M ethanolamine (pH 8.5). The final surface density was 3000-5000 RU. Fc-tagged human NKp46 was diluted to 0.1 μM in HBS-N and was captured on flow cell 2 only of the sensor chip at a flow rate of 10 μL/min to 500-1000 RU. The buffer was then changed to PBS-P+(Cytiva) supplemented with 2% DMSO. […] The flow rate was 50 μL/min with 60 s association and 400 s dissociation. Data were corrected for DMSO volume exclusion effects. All data were double-referenced against blank injections and reference surface response using standard processing procedures. Data processing and kinetic fitting was performed using Biacore Insight Evaluation Software with Extended Screening and Characterization Extension (Cytiva). Data were fitted using steady state affinity 1:1 binding model to determine KD. Data were fitted using kinetic 1:1 binding model to determine kinetic constants where appropriate.
As to ACNLQA[NMeA]CMLTGKVCA-NH2 (linker 2-8-15 via TATA, scaffold TATA) [BCY18312], binding was put at a Kd of 1810 nM.

B1 displayed a dissociation constant Kd of 878 nM.

As for Ac-ACNLQAPCMLTGKVCA-NH2 (linker 2-8-15 via TATA (inferred), scaffold TATA) [BCY18294], the Kd is 3260 nM.

For the molecule Ac-CNLQAPCMLTGKVC-NH2 (linker 1-7-14 via TATA (inferred), scaffold TATA) [BCY18293], the Kd stood at 3380 nM. This Kd and that of the molecule before are within 1.5-fold of each other.

Consider ACNLQAPC[Nle]LTGKVCA-NH2 (linker 2-8-15 via TATA, scaffold TATA) [BCY18314], for which the Kd turned out to be 3150 nM.

The molecule ACDLTTHNCQWG[Tle]CA-NH2 (linker 2-9-14 via TATA, scaffold TATA) [BCY18289] returned a dissociation constant Kd of 572 nM.

Consider B2, for which the dissociation constant Kd was 887 nM.

Molecule ACNLQA[cisHyp]CMLTGKVCA-NH2 (linker 2-8-15 via TATA, scaffold TATA) [BCY18310] registered a Kd of 802 nM.

For ACDLTTHNCQWG[Chg]CA-NH2 (linker 2-9-14 via TATA, scaffold TATA) [BCY18291], binding was characterised by a dissociation constant (Kd) of 2850 nM.

In turn, ACNLQAPCMLTGKVCA-NH2 (linker 2-8-15 via TATA; also: scaffold TATA, TATB or TBMT, scaffold TATA) [BCY15099] showed a dissociation constant (Kd) of 1120 nM.

With ACNLQAPCMLTGRVCA-NH2 (linker 2-8-15 via TATA; also: scaffold TATA, TATB or TBMT, scaffold TATA) [BCY18323], binding was characterised by a dissociation constant (Kd) of 2340 nM.

As for ACNLQAPCMFTGKVCA-NH2 (linker 2-8-15 via TATA; also: scaffold TATA, TATB or TBMT, scaffold TATA) [BCY18317], the Kd came to 2080 nM.

ACNLQAPCMLTGKACA-NH2 (linker 2-8-15 via TATA; also: scaffold TATA, TATB or TBMT, scaffold TATA) [BCY18305]: the affinity, expressed as Kd, was 907 nM.

Turning to ACNLQAPCLLTGKVCA-NH2 (linker 2-8-15 via TATA; also: scaffold TATA, TATB or TBMT, scaffold TATA) [BCY18313], the Kd is 2750 nM.

Molecule ACNLQAPCMLT[dA]KVCA-NH2 (linker 2-8-15 via TATA (inferred), scaffold TATA) [BCY18322] yielded a dissociation constant (Kd) of 466 nM.

As for ACNLQAPCMLTAKVCA-NH2 (linker 2-8-15 via TATA; also: scaffold TATA, TATB or TBMT, scaffold TATA) [BCY18303], the Kd was 2750 nM.

Consider ACNLQAPCMLTGK[Tle]CA-NH2 (linker 2-8-15 via TATA, scaffold TATA) [BCY18325], for which binding was put at a Kd of 854 nM. This Kd lies about 3.2-fold lower than the previous one.

In the case of B3, the Kd was 1500 nM.

In the case of ACNLQAPCM[Cba]TGKVCA-NH2 (linker 2-8-15 via TATA, scaffold TATA) [BCY18319], binding was put at a Kd of 991 nM.

Consider ACDLTTHNCQWG[tBuAla]CA-NH2 (linker 2-9-14 via TATA, scaffold TATA) [BCY18290], for which the equilibrium dissociation constant (Kd) was 4890 nM.

In turn, B4 came in with a dissociation constant Kd of 2780 nM.

The molecule ACN[tBuAla]QAPCMLTGKVCA-NH2 (linker 2-8-15 via TATA, scaffold TATA) [BCY18307] showed a dissociation constant (Kd) of 2110 nM.

As for ACNLQAPCM[Cha]TGKVCA-NH2 (linker 2-8-15 via TATA; also: Cha: filing contradicts itself on L or D, scaffold TATA) [BCY18321], the dissociation constant Kd was 548 nM. This Kd is about 3.9-fold lower than that of the molecule before.

In turn, ACNLQA[Hyp]CMLTGKVCA-NH2 (linker 2-8-15 via TATA, scaffold TATA) [BCY18311] returned a Kd of 795 nM.

The molecule B5 showed a Kd of 354 nM.

In turn, B6 showed an equilibrium dissociation constant (Kd) of 2570 nM.

The molecule ACNLQAPCM[tBuAla]TGKVCA-NH2 (linker 2-8-15 via TATA, scaffold TATA) [BCY18320] yielded a dissociation constant (Kd) of 622 nM.
